Assay results published in article PMC9596371 (Nature Chemical Biology, 2022).

target: T1, SARS-CoV-2 spike protein (FL-GCN4-Avi-His, 2P, biotinylated trimer) (SARS-CoV-2, Wuhan-Hu-1 (strain named …, UniProt P0DTC2, stabilised, biotin on the Avi tag)); assay: BLI; conditions: both partners purified

Binder	binding result
COV2-2147 IgG (antibody, V domains shown) VH: QVQLAESGGGVVQPGRSLRLSCAASGFTFSSYAMHWVRQAPGKGLEWVAVISYDGSNKYYADSVKGRFTISRDNSKNTLYLQMNSLRAEDTAVYYCARSTSGSYYYGMDVWGQGTTVTVSS VL: QSALTQPASVSGSPGQSITISCTGTSSDVGDYNYVSWYQQHPGKAPKLMIYDVSNRPSGVSNRFSGSKSGNTASLTISGLQAEDEAEYYCSSYTSSSTLLYVFGTGTKVTVL	binds
CV27 Fab (Fab, V domains shown) VH: QVQLVESGGGVVQPGRSLRLSCAASGFTFSSYAMHWVRQAPGKGLEWVALISYDGSNKYYADSVKGRFTISRDNSKNTLYLQMNSLRAEDTAVYYCARSFGGSYYYGMDVWGQGTTVTVSS VL: QSALTQPASVSGSPGQSITISCTGTSSDVGGYNYVSWYQQHPGKAPKLMIYDVSNRPSGVSNRFSGSKSGNTASLTISGLQAEDEADYYCSSYTSSSTPYVFGTGTKVTVL	binds
COVA2-14 IgG (antibody, V domains shown) VH: QVQLVQSGAEVKKPGSSVKVSCKASGGTFSSYAIIWVRQAPGQGLEWMGGIIPIFGTANYAQKFQGRVTITTDESTSTAYMELSSLRSEDTAVYYCARVRYYDSSGYYEDYWGQGTLVTVSS VL: EIVLTQSPATLSLSPGERATLSCRASQSVSSYLAWYQQEPGQAPRLLIYDASNRATGIPARFSGSGSGTDFTLTISSLEPEDFAVYYCQQRSNWPPMYTFGQGTKVEIK	binds
COVA2-18 IgG (antibody, V domains shown) VH: EVQLVQSGAEVKKPGSSVKVSCKASGGTFSSYAISWVRQAPGQGLEWMGGIIPIFGTTNYAQKFQGRVTITTDESTSTAYMELSSLRSEDTAVYYCARVYSYDSSGYYLEYWGQGTRVTVSS VL: EIVLTQSPATLSLSPGERATLSCRASQSVSSYLAWYQQKPGQAPRLLIYDASNRATGIPARFSGSGSGTDFTLTISSLEPEDFAVYYCQQRSNWPPSITFGQGTRLEIK	binds
COVA2-14 Fab (Fab, V domains shown) VH: QVQLVQSGAEVKKPGSSVKVSCKASGGTFSSYAIIWVRQAPGQGLEWMGGIIPIFGTANYAQKFQGRVTITTDESTSTAYMELSSLRSEDTAVYYCARVRYYDSSGYYEDYWGQGTLVTVSS VL: EIVLTQSPATLSLSPGERATLSCRASQSVSSYLAWYQQEPGQAPRLLIYDASNRATGIPARFSGSGSGTDFTLTISSLEPEDFAVYYCQQRSNWPPMYTFGQGTKVEIK	binds
COV2-2143 Fab (Fab, V domains shown) VH: EVQLVESGGGLVQPGGSLRLSCAASGFTVSSNYMSWVRQAPGKGLEWVSVIYSAGSTYYADSVKGRFSISRDKSKNTLYLQMNSLRAEDTAVYYCAKEGGSGSLRYYYYGMDVWGQGTTVTVSS VL: not shown	binds
COV2-2449 Fab (Fab, V domains shown) VH: QVQLVESGGGVVQPGRSLRLSCATSGFTFSSFALHWVRQAPGKGLEWVTVISDDGNNKYYVDSVKGRFTISRDNSKNTLFLQMNSLRVEDTAIYYCARASYNSNWSIGEYFRDWGQGTLVTVSS VL: not shown	binds

target: T1, SARS-CoV-2 spike protein …; assay: ELISA; conditions: both partners purified

Binder	binding result
CV27 IgG (antibody, V domains shown) VH: QVQLVESGGGVVQPGRSLRLSCAASGFTFSSYAMHWVRQAPGKGLEWVALISYDGSNKYYADSVKGRFTISRDNSKNTLYLQMNSLRAEDTAVYYCARSFGGSYYYGMDVWGQGTTVTVSS VL: QSALTQPASVSGSPGQSITISCTGTSSDVGGYNYVSWYQQHPGKAPKLMIYDVSNRPSGVSNRFSGSKSGNTASLTISGLQAEDEADYYCSSYTSSSTPYVFGTGTKVTVL	binds
COV2-2143 IgG (antibody, V domains shown) VH: EVQLVESGGGLVQPGGSLRLSCAASGFTVSSNYMSWVRQAPGKGLEWVSVIYSAGSTYYADSVKGRFSISRDKSKNTLYLQMNSLRAEDTAVYYCAKEGGSGSLRYYYYGMDVWGQGTTVTVSS VL: not shown	binds
COV2-2449 IgG (antibody, V domains shown) VH: QVQLVESGGGVVQPGRSLRLSCATSGFTFSSFALHWVRQAPGKGLEWVTVISDDGNNKYYVDSVKGRFTISRDNSKNTLFLQMNSLRVEDTAIYYCARASYNSNWSIGEYFRDWGQGTLVTVSS VL: not shown	binds
